Paper PMC3841102, “Activation of Smurf E3 Ligase Promoted by Smoothened Regulates Hedgehog Signaling through Targeting Patched Turnover” (PLoS Biology, 2013)
Substitutions are numbered along the chain they refer to. Numbers in names are those of the source.

T1: His:Smurf protein (full length Drosophila Smurf) (Drosophila, UniProt Q9V853 1-1061)
T1 construct: Smurf E3 ligase, Drosophila, full length; Vector pET28a; also called Smurf in pET28a; source: E. coli, purified (Ni Sepharose)
T1 sequence (looked up): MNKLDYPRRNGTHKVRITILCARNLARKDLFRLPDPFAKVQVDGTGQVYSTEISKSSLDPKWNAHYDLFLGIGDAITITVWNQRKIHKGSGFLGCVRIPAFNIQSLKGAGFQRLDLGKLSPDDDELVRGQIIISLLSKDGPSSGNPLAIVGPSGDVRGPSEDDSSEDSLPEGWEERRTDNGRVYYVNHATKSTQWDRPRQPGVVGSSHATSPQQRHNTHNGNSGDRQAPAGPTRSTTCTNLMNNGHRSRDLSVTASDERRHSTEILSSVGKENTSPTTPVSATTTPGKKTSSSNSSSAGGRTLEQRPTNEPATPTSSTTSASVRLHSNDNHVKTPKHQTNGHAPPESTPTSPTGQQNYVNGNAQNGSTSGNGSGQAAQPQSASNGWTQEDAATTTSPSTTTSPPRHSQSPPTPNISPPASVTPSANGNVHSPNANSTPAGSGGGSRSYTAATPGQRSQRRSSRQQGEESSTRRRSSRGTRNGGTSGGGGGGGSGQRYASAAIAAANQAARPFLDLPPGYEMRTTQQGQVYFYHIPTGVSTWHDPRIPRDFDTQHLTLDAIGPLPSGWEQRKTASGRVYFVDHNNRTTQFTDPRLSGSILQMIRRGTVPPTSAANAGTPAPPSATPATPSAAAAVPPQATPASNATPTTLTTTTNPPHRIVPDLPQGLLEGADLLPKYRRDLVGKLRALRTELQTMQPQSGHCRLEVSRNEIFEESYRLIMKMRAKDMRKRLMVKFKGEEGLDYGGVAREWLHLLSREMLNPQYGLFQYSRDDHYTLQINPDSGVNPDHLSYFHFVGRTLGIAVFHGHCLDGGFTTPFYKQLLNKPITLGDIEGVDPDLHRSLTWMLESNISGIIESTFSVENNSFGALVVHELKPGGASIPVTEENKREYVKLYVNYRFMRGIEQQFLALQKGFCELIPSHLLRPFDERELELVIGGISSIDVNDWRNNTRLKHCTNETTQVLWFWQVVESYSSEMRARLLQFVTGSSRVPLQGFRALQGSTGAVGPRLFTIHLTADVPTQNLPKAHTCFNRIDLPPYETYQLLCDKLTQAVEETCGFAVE

B1: Ptc^CTD (C-terminal tail of Ptc) expressed in S2 cells (domain or fragment, Drosophila, UniProt P18502 1101-1286, looked up)
chain: ILLSMVGPEAELVPLEHPDRISTPSPLPVRSSKRSGKSYVVQGSRSSRGSCQKSHHHHHKDLNDPSLTTITEEPQSWKSSNSSIQMPNDWTYQPREQRPASYAAPPPAYHKAAAQQHHQHQGPPTTPPPPFPTAYPPELQSIVVQPEVTVETTHSDSNTTKVTATANIKVELAMPGRAVRSYNFTS
notes: Patched (Ptc), Drosophila, C-terminal tail; also called C-tail of Ptc; Ptc C-tail; source: S2 cells, transfected, in lysate
B2: Ptc^CTD with the K1261R mutation, in S2 cells (domain or fragment, Drosophila, UniProt P18502 1101-1286, looked up)
chain: B1 chain with K161R
notes: Patched (Ptc), Drosophila, C-terminal domain with K1261R; source: S2 cells, transfected, in lysate
B3: GST:Flag:Ptc^CTD fusion protein (domain or fragment, Drosophila, UniProt P18502 1101-1286, looked up)
chain: B1 chain
notes: Patched (Ptc), Drosophila, C-terminal domain, residues 1101-1286; Vector pGEX4T-1; also called Flag tagged Ptc^CTD (1101-1286 a.a) in pGEX4T-1; source: E. coli, purified (glutathione agarose beads, batch)

How the values were obtained:
[1] = molecular target: the molecule itself; test: native gel or EMSA; lysates of S2 cells transfected for 48 h; native polyacrylamide gel and Western blot
[2] = molecular target: T1, His:Smurf protein (full length …); test: pull-down; GST fusion protein loaded glutathione beads incubated with 200 ng purified His:Smurf; 50 mM Tris-Cl pH 8.0, 200 mM NaCl, 1 mM EDTA, 1% NP-40, 2% BSA, 10 mM DTT, 1 mM PMSF; 4°C, 1 h; Western blot; settings: both partners purified

Binder	stoichiometry N [1]	binding result [2]
B1	3	
B2	3	
B3		binds
